According to patent publication EP2966448B1, “METHOD FOR THE PREDICTION OR PROGNOSIS OF THE RESPONSE OF A HUMAN SUBJECT SUFFERING FROM CANCER TO TREATMENT WITH AN ANTAGONIST OF THE NK1 RECEPTOR” (priority 2013, dated 2014):

Target: NK1 receptor (human) (UniProt P25103)
Assay: cell-based or functional assay

Chain of NK1 receptor (human) (P25103 87-407): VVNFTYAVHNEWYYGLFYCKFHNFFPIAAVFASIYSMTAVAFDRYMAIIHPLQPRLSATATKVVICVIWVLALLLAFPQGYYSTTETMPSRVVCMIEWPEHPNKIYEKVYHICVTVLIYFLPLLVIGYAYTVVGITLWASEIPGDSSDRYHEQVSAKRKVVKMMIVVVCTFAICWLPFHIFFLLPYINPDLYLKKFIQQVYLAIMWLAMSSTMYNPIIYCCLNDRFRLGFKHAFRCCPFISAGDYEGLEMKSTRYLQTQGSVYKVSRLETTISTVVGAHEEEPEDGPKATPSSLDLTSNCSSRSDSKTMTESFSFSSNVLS

Percentage of inhibition of cell cultures; Lung carcinoma (non small cell lung carcinoma); cases with presence of ERK: 95%
Percentage of inhibition of cell cultures; Lung carcinoma (non small cell lung carcinoma); cases without presence of AKT: 25%
Percentage of inhibition of cell cultures; Lung carcinoma (non small cell lung carcinoma); cases without presence of ERK: 29%
Percentage of inhibition of cell cultures; Lung carcinoma (non small cell type); Group 1 (expression in less than 20% of the cells): 23%
Percentage of inhibition of cell cultures; Lung carcinoma (non small cell type); Group 2 (expression in 20-80% of the cells): 55%
Percentage of inhibition of cell cultures; Lung carcinoma (non small cell type); Group 3 (expression in more than 80% of the cells): 94%
Percentage of inhibition of cell cultures; Lung carcinoma (non small cell type); Intensity grade 1: 24%
Percentage of inhibition of cell cultures; Lung carcinoma (non small cell type); Intensity grade 2: 55%
Percentage of inhibition of cell cultures; Lung carcinoma (non small cell type); Intensity grade 3: 97%
Percentage of inhibition of cell cultures; Lung carcinoma (small cell lung carcinoma); cases with presence of AKT: 94%
Percentage of inhibition of cell cultures; Lung carcinoma (small cell lung carcinoma); cases with presence of ERK: 94%
Percentage of inhibition of cell cultures; Lung carcinoma (small cell lung carcinoma); cases without presence of AKT: 24%
Percentage of inhibition of cell cultures; Lung carcinoma (small cell lung carcinoma); cases without presence of ERK: 27%
Percentage of inhibition of cell cultures; Lung carcinoma (small cell type); Group 1 (expression in less than 20% of the cells): 24%
Percentage of inhibition of cell cultures; Lung carcinoma (small cell type); Group 2 (expression in 20-80% of the cells): 56%
Percentage of inhibition of cell cultures; Lung carcinoma (small cell type); Group 3 (expression in more than 80% of the cells): 95%
Percentage of inhibition of cell cultures; Lung carcinoma (small cell type); Intensity grade 1: 25%
Percentage of inhibition of cell cultures; Lung carcinoma (small cell type); Intensity grade 2: 54%
Percentage of inhibition of cell cultures; Lung carcinoma (small cell type); Intensity grade 3: 94%
Percentage of inhibition of cell cultures; Malignant Fibrous Histiocytoma.; Group 1 (expression in less than 20% of the cells): 22%
Percentage of inhibition of cell cultures; Malignant Fibrous Histiocytoma.; Group 2 (expression in 20-80% of the cells): 56%
Percentage of inhibition of cell cultures; Malignant Fibrous Histiocytoma.; Group 3 (expression in more than 80% of the cells): 96%
Percentage of inhibition of cell cultures; Malignant Fibrous Histiocytoma.; Intensity grade 1: 25%
Percentage of inhibition of cell cultures; Malignant Fibrous Histiocytoma.; Intensity grade 2: 55%
Percentage of inhibition of cell cultures; Malignant Fibrous Histiocytoma.; Intensity grade 3: 95%
Percentage of inhibition of cell cultures; Melanoma (Nodular Melanoma); cases with presence of AKT: 97%
Percentage of inhibition of cell cultures; Melanoma (Nodular Melanoma); cases with presence of ERK: 90%
Percentage of inhibition of cell cultures; Melanoma (Nodular Melanoma); cases without presence of AKT: 25%
Percentage of inhibition of cell cultures; Melanoma (Nodular Melanoma); cases without presence of ERK: 28%
Percentage of inhibition of cell cultures; Melanoma; Group 1 (expression in less than 20% of the cells): 24%
Percentage of inhibition of cell cultures; Melanoma; Group 2 (expression in 20-80% of the cells): 55%
Percentage of inhibition of cell cultures; Melanoma; Group 3 (expression in more than 80% of the cells): 96%
Percentage of inhibition of cell cultures; Melanoma; Intensity grade 1: 23%
Percentage of inhibition of cell cultures; Melanoma; Intensity grade 2: 56%
Percentage of inhibition of cell cultures; Melanoma; Intensity grade 3: 97%
Percentage of inhibition of cell cultures; Myeloma; Group 1 (expression in less than 20% of the cells): 23%
Percentage of inhibition of cell cultures; Myeloma; Group 2 (expression in 20-80% of the cells): 56%
Percentage of inhibition of cell cultures; Myeloma; Group 3 (expression in more than 80% of the cells): 96%
Percentage of inhibition of cell cultures; Myeloma; Intensity grade 1: 25%
Percentage of inhibition of cell cultures; Myeloma; Intensity grade 2: 56%
Percentage of inhibition of cell cultures; Myeloma; Intensity grade 3: 95%
Percentage of inhibition of cell cultures; Neuroblastoma; Group 1 (expression in less than 20% of the cells): 22%
Percentage of inhibition of cell cultures; Neuroblastoma; Group 2 (expression in 20-80% of the cells): 54%
Percentage of inhibition of cell cultures; Neuroblastoma; Group 3 (expression in more than 80% of the cells): 95%
Percentage of inhibition of cell cultures; Neuroblastoma; Intensity grade 1: 25%
Percentage of inhibition of cell cultures; Neuroblastoma; Intensity grade 2: 53%
Percentage of inhibition of cell cultures; Neuroblastoma; Intensity grade 3: 93%
Percentage of inhibition of cell cultures; Non Hodgkin Lymphoma B (diffuse B cell lymphoma); cases with presence of AKT: 95%
Percentage of inhibition of cell cultures; Non Hodgkin Lymphoma B (diffuse B cell lymphoma); cases with presence of ERK: 98%
Percentage of inhibition of cell cultures; Non Hodgkin Lymphoma B (diffuse B cell lymphoma); cases without presence of AKT: 24%
Percentage of inhibition of cell cultures; Non Hodgkin Lymphoma B (diffuse B cell lymphoma); cases without presence of ERK: 29%
Percentage of inhibition of cell cultures; Non Hodgkin Lymphoma B; Group 1 (expression in less than 20% of the cells): 23%
Percentage of inhibition of cell cultures; Non Hodgkin Lymphoma B; Group 2 (expression in 20-80% of the cells): 54%
Percentage of inhibition of cell cultures; Non Hodgkin Lymphoma B; Group 3 (expression in more than 80% of the cells): 96%
Percentage of inhibition of cell cultures; Non Hodgkin Lymphoma B; Intensity grade 1: 26%
Percentage of inhibition of cell cultures; Non Hodgkin Lymphoma B; Intensity grade 2: 55%
Percentage of inhibition of cell cultures; Non Hodgkin Lymphoma B; Intensity grade 3: 96%
Percentage of inhibition of cell cultures; Non Hodgkin Lymphoma T (diffuse T cell lymphoma); cases with presence of AKT: 94%
Percentage of inhibition of cell cultures; Non Hodgkin Lymphoma T (diffuse T cell lymphoma); cases with presence of ERK: 97%
Percentage of inhibition of cell cultures; Non Hodgkin Lymphoma T (diffuse T cell lymphoma); cases without presence of AKT: 25%
Percentage of inhibition of cell cultures; Non Hodgkin Lymphoma T (diffuse T cell lymphoma); cases without presence of ERK: 27%
Percentage of inhibition of cell cultures; Non Hodgkin Lymphoma T; Group 1 (expression in less than 20% of the cells): 23%
Percentage of inhibition of cell cultures; Non Hodgkin Lymphoma T; Group 2 (expression in 20-80% of the cells): 55%
Percentage of inhibition of cell cultures; Non Hodgkin Lymphoma T; Group 3 (expression in more than 80% of the cells): 96%
Percentage of inhibition of cell cultures; Non Hodgkin Lymphoma T; Intensity grade 1: 27%
Percentage of inhibition of cell cultures; Non Hodgkin Lymphoma T; Intensity grade 2: 56%
Percentage of inhibition of cell cultures; Non Hodgkin Lymphoma T; Intensity grade 3: 95%
Percentage of inhibition of cell cultures; Ovarian carcinoma (Adenocarcinoma); cases with presence of AKT: 95%
Percentage of inhibition of cell cultures; Ovarian carcinoma (Adenocarcinoma); cases with presence of ERK: 96%
Percentage of inhibition of cell cultures; Ovarian carcinoma (Adenocarcinoma); cases without presence of AKT: 24%
Percentage of inhibition of cell cultures; Ovarian carcinoma (Adenocarcinoma); cases without presence of ERK: 24%
Percentage of inhibition of cell cultures; Ovarian carcinoma; Group 1 (expression in less than 20% of the cells): 24%
Percentage of inhibition of cell cultures; Ovarian carcinoma; Group 2 (expression in 20-80% of the cells): 55%
Percentage of inhibition of cell cultures; Ovarian carcinoma; Group 3 (expression in more than 80% of the cells): 97%
Percentage of inhibition of cell cultures; Ovarian carcinoma; Intensity grade 1: 23%
Percentage of inhibition of cell cultures; Ovarian carcinoma; Intensity grade 2: 54%
Percentage of inhibition of cell cultures; Ovarian carcinoma; Intensity grade 3: 96%
Percentage of inhibition of cell cultures; Pancreatic carcinoma (Adenocarcinoma); cases with presence of AKT: 95%
Percentage of inhibition of cell cultures; Pancreatic carcinoma (Adenocarcinoma); cases with presence of ERK: 94%
Percentage of inhibition of cell cultures; Pancreatic carcinoma (Adenocarcinoma); cases without presence of AKT: 94%
Percentage of inhibition of cell cultures; Pancreatic carcinoma (Adenocarcinoma); cases without presence of ERK: 94%
Percentage of inhibition of cell cultures; Pancreatic carcinoma; Group 1 (expression in less than 20% of the cells): 23%
Percentage of inhibition of cell cultures; Pancreatic carcinoma; Group 2 (expression in 20-80% of the cells): 53%
Percentage of inhibition of cell cultures; Pancreatic carcinoma; Group 3 (expression in more than 80% of the cells): 96%
Percentage of inhibition of cell cultures; Pancreatic carcinoma; Intensity grade 1: 22%
Percentage of inhibition of cell cultures; Pancreatic carcinoma; Intensity grade 2: 54%
Percentage of inhibition of cell cultures; Pancreatic carcinoma; Intensity grade 3: 93%
Percentage of inhibition of cell cultures; Prostate carcinoma; Group 1 (expression in less than 20% of the cells): 23%
Percentage of inhibition of cell cultures; Prostate carcinoma; Group 2 (expression in 20-80% of the cells): 57%
Percentage of inhibition of cell cultures; Prostate carcinoma; Group 3 (expression in more than 80% of the cells): 96%
Percentage of inhibition of cell cultures; Prostate carcinoma; Intensity grade 1: 24%
Percentage of inhibition of cell cultures; Prostate carcinoma; Intensity grade 2: 56%
Percentage of inhibition of cell cultures; Prostate carcinoma; Intensity grade 3: 93%
Percentage of inhibition of cell cultures; Prostate carcinoma; cases with presence of AKT: 90%
Percentage of inhibition of cell cultures; Prostate carcinoma; cases with presence of ERK: 90%
Percentage of inhibition of cell cultures; Prostate carcinoma; cases without presence of AKT: 26%
Percentage of inhibition of cell cultures; Prostate carcinoma; cases without presence of ERK: 27%
Percentage of inhibition of cell cultures; Renal cell carcinoma (clear cell renal cell carcinoma); cases with presence of AKT: 94%
Percentage of inhibition of cell cultures; Renal cell carcinoma (clear cell renal cell carcinoma); cases with presence of ERK: 95%
Percentage of inhibition of cell cultures; Renal cell carcinoma (clear cell renal cell carcinoma); cases without presence of AKT: 34%
Percentage of inhibition of cell cultures; Renal cell carcinoma (clear cell renal cell carcinoma); cases without presence of ERK: 32%
Percentage of inhibition of cell cultures; Renal cell carcinoma; Group 1 (expression in less than 20% of the cells): 22%
Percentage of inhibition of cell cultures; Renal cell carcinoma; Group 2 (expression in 20-80% of the cells): 52%
Percentage of inhibition of cell cultures; Renal cell carcinoma; Group 3 (expression in more than 80% of the cells): 94%
Percentage of inhibition of cell cultures; Renal cell carcinoma; Intensity grade 1: 23%
Percentage of inhibition of cell cultures; Renal cell carcinoma; Intensity grade 2: 53%
Percentage of inhibition of cell cultures; Renal cell carcinoma; Intensity grade 3: 97%
Percentage of inhibition of cell cultures; Thyroid carcinoma (follicular carcinoma); cases with presence of AKT: 96%
Percentage of inhibition of cell cultures; Thyroid carcinoma (follicular carcinoma); cases with presence of ERK: 96%
Percentage of inhibition of cell cultures; Thyroid carcinoma (follicular carcinoma); cases without presence of AKT: 24%
Percentage of inhibition of cell cultures; Thyroid carcinoma (follicular carcinoma); cases without presence of ERK: 26%
Percentage of inhibition of cell cultures; Thyroid carcinoma (folliculary type); Group 1 (expression in less than 20% of the cells): 25%
Percentage of inhibition of cell cultures; Thyroid carcinoma (folliculary type); Group 2 (expression in 20-80% of the cells): 54%
Percentage of inhibition of cell cultures; Thyroid carcinoma (folliculary type); Group 3 (expression in more than 80% of the cells): 96%
Percentage of inhibition of cell cultures; Thyroid carcinoma (folliculary type); Intensity grade 1: 26%
Percentage of inhibition of cell cultures; Thyroid carcinoma (folliculary type); Intensity grade 2: 53%
Percentage of inhibition of cell cultures; Thyroid carcinoma (folliculary type); Intensity grade 3: 95%
Percentage of inhibition of cell cultures; Thyroid carcinoma (papillary carcinoma); cases with presence of AKT: 89%
Percentage of inhibition of cell cultures; Thyroid carcinoma (papillary carcinoma); cases with presence of ERK: 89%
Percentage of inhibition of cell cultures; Thyroid carcinoma (papillary carcinoma); cases without presence of AKT: 24%
Percentage of inhibition of cell cultures; Thyroid carcinoma (papillary carcinoma); cases without presence of ERK: 27%
Percentage of inhibition of cell cultures; Thyroid carcinoma (papillary type); Group 1 (expression in less than 20% of the cells): 22%
Percentage of inhibition of cell cultures; Thyroid carcinoma (papillary type); Group 2 (expression in 20-80% of the cells): 53%
Percentage of inhibition of cell cultures; Thyroid carcinoma (papillary type); Group 3 (expression in more than 80% of the cells): 94%
Percentage of inhibition of cell cultures; Thyroid carcinoma (papillary type); Intensity grade 1: 24%
Percentage of inhibition of cell cultures; Thyroid carcinoma (papillary type); Intensity grade 2: 56%
Percentage of inhibition of cell cultures; Thyroid carcinoma (papillary type); Intensity grade 3: 94%
Percentage of inhibition of cell cultures; Undifferentiated Pleomorphic Sarcoma (malignant fibrous histiocytoma grade 3); cases with presence of AKT: 90%
Percentage of inhibition of cell cultures; Undifferentiated Pleomorphic Sarcoma (malignant fibrous histiocytoma grade 3); cases with presence of ERK: 90%
Percentage of inhibition of cell cultures; Undifferentiated Pleomorphic Sarcoma (malignant fibrous histiocytoma grade 3); cases without presence of AKT: 25%
Percentage of inhibition of cell cultures; Undifferentiated Pleomorphic Sarcoma (malignant fibrous histiocytoma grade 3); cases without presence of ERK: 27%
Percentage of inhibition of cell cultures; Urinary bladder carcinoma (transitional cell carcinoma); cases with presence of AKT: 91%
Percentage of inhibition of cell cultures; Urinary bladder carcinoma (transitional cell carcinoma); cases with presence of ERK: 88%
Percentage of inhibition of cell cultures; Urinary bladder carcinoma (transitional cell carcinoma); cases without presence of AKT: 25%
Percentage of inhibition of cell cultures; Urinary bladder carcinoma (transitional cell carcinoma); cases without presence of ERK: 28%
Percentage of inhibition of cell cultures; Urinary bladder carcinoma; Group 1 (expression in less than 20% of the cells): 23%
Percentage of inhibition of cell cultures; Urinary bladder carcinoma; Group 2 (expression in 20-80% of the cells): 54%
Percentage of inhibition of cell cultures; Urinary bladder carcinoma; Group 3 (expression in more than 80% of the cells): 95%
Percentage of inhibition of cell cultures; Urinary bladder carcinoma; Intensity grade 1: 25%
Percentage of inhibition of cell cultures; Urinary bladder carcinoma; Intensity grade 2: 55%
Percentage of inhibition of cell cultures; Urinary bladder carcinoma; Intensity grade 3: 96%
Substance: antibody against NK1 receptor (Sigma-Aldrich, catalogue number S8305)
